Laboratory results taken from the RNAGym collection of RNA variant scans (doi:10.1073/pnas.2313332121).
Fewer inactive variants are shown than the library holds.

B1: TPR 5TU (parent)
chain: GGAUCUUCUCGAUCUAACAAAAAAGACAAAUCUGCCACAAAGCUUGAGAGCAUCUUCGGAUGCAGAGGCGGCAGCCUUCGGUGGCGCGAUAGCGCCAACGUUCUCAACUAUGACACGCAAAACGCGUGCUCCGUUGAAUGGAGUUUAUCAUG

Variants of: B1
Assay: polymerase ribozyme fitness, log enrichment relative to wild type (log ratio); higher = more active; in vitro selection for triplet polymerase activity
How it was run: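 A heterodimeric triplet polymerase ribozyme had each of its subunits mutagenized by PCR into a library, which was transcribed. One round of in vitro selection, done in triplicate, annealed each library with a biotinylated primer, its partner subunit and triplets, then incubated it frozen at −7 °C before gel excision of extended constructs, streptavidin-bead capture and RT-PCR. Fitness is the logarithm of genotype enrichment relative to wild-type enrichment, based on Illumina sequencing of inputs and outputs and inverse-variance-weighted replicate averages. A base-2 logarithm is used, and genotypes were kept only with ≥10 input reads and ≥1 read per output.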

| Variant | polymerase ribozyme fitness (log ratio) |
| --- | --- |
| U44A G68U G92U A98G C99G | ≤ -4.2 |
| A41C U53A U135A | -1.07 |
| U45A U109C | -3.44 |
| A41C U56A C87U U135G | ≤ -4.2 |
| G46C C93U | -2.47 |
| A41U G58A A147U | 0.803 |
| G46C C76U U102C C116U A137C | ≤ -4.2 |
| A41U C57U C85U | -1.12 |
| C43G A49C G68C C72U A97U | ≤ -4.2 |
| U44A C54A U77A G92C C118A A120G G136C G140A | ≤ -4.2 |
| U45G A137C | -4.14 |
| G42C U61A G88A C95U U104G | ≤ -4.2 |
| A41G G88U | -3.82 |
| U45G C85U | -0.0479 |
| G42U C57A | ≤ -4.2 |
| U44G A120U | ≤ -4.2 |
| A41U C85U C99A C105A C118G A119C | ≤ -4.2 |
| U45C A52G C57A G92C | -2.64 |
| U45A A106G | -1.7 |
| G46C A110G | ≤ -4.2 |
| A41G U55G G59A U145A | -0.554 |
| G42A U56A C95U U111G | -4 |
| G46C A52G A137G | -2.44 |
| G46U A47C G58U C108U A119U G128U | ≤ -4.2 |

| Variant | polymerase ribozyme fitness (log ratio) |
| --- | --- |
| C43U U56A A66C C75A C85G | ≤ -4.2 |
| U44A C131G | ≤ -4.2 |
| C43G G80U G84A C93A U134C | ≤ -4.2 |
| U45G C85G C93U | ≤ -4.2 |
| C43U C54U U61A A64C G84U U127A C131G A142G | ≤ -4.2 |
| G46A G86C C118U A122U | -3.45 |
| A41U G88A C95G A106C A120G | ≤ -4.2 |
| G42C G83A A106U | ≤ -4.2 |
| A41C U56A C57A A115U C116U | -2.62 |
| C43G G86C A137G | ≤ -4.2 |
| U45G G50A C87A C103U G124A | ≤ -4.2 |
| C43U U61G G94U C116U U144G C149G | ≤ -4.2 |
| G42C C51G U56A G83A C105U A122U U148A | ≤ -4.2 |
| C43U U82G U101G | -4.04 |
| G46C G48A A73U U77C G80U C87U | -3.85 |
| A41U G68U C93U A106G | ≤ -4.2 |
| G42U G80A U104C | ≤ -4.2 |
| U45A C93A G141A | -4.05 |
| G42C A47G G88C | ≤ -4.2 |
| A41U A52G A107U G140U C149A | ≤ -4.2 |
| C43G C57A A60U G141C | -4.18 |
| A41U G80A A97U | -1.76 |
| C43G C95U C96A | -4.15 |
| A41U G140A | -3.78 |

| Variant | polymerase ribozyme fitness (log ratio) |
| --- | --- |
| U44A G48C G59A U82C C116G C123U U134C | ≤ -4.2 |
| U44A A73U C105G A120G | ≤ -4.2 |
| A41C G86U C123U | -2.13 |
| G42A U56A G67U G94A | ≤ -4.2 |
| U44A A49U C72G C79G G92U A150G | ≤ -4.2 |
| A41C G143A | -1.42 |
| A41C G143C | -2.56 |
| G46A C54A G94C G117A A122U G124A | -3.11 |
| G46A U55A C63U U111C C125A | ≤ -4.2 |
| A41U U44A G65C C85G G143U | ≤ -4.2 |
| A41U C85G G126A | -2.76 |
| U44A C93U C99A U111G A138G G152U | -3.36 |
| G42C A49U C63U | -4.12 |
| U44G G81C C96U C108G | ≤ -4.2 |
| A41U G92U | -1.05 |
| U45A A52G C63G A64U G70C A89C U101G C116A | ≤ -4.2 |
| G42A G88A G124A C125U C129A | ≤ -4.2 |
| C43A G94C G143U | ≤ -4.2 |
| G46C C54A U61A C63U G70A G84A C93U G100A C116G | ≤ -4.2 |
| G42A G92C | -3.91 |
| A41G G42A G92C U111C A113U C125G | ≤ -4.2 |
| G46A A91G G136U | ≤ -4.2 |
| G42C C95A C99G A107U | ≤ -4.2 |
| A41G C76U C93G A106G A122G C129A G141U | ≤ -4.2 |

| Variant | polymerase ribozyme fitness (log ratio) |
| --- | --- |
| G46A A47C U53A C57U A107U G117A | ≤ -4.2 |
| G42A G59A G74U C96G A137G | ≤ -4.2 |
| A41U G50A A52C C93U G100A A119C | ≤ -4.2 |
| G46A G74C | ≤ -4.2 |
| C43G G67U G83U C93G C103U C116A | ≤ -4.2 |
| A41U G80U U101C | -4.09 |
| A41U U111A | -3.7 |
| G46A G59U | 0.917 |
| U45G C79G G83U C85G U102C | ≤ -4.2 |
| U45A C79G G84C C93G U102G | ≤ -4.2 |
| G42A A142C | -4.17 |
| U45A A49G G84U A115G A120G | ≤ -4.2 |
| U44A U55A C69G G86U G141A | -4.2 |
| G46A G70U C85G | ≤ -4.2 |
| A41G C57U C85U C116U | 0.221 |
| U45A G58A G83A U148C | ≤ -4.2 |
| U45G G50C G81C C85A C118A | ≤ -4.2 |
| A41G A47C G81C | -0.0928 |
| A41U U82C C87U C125G G126C U144G | -2.6 |
| A41C G67C G83A C95G G143A | ≤ -4.2 |
| G42C U44A U90G G140U A147U | ≤ -4.2 |
| U45A G65A U82A A106U | -0.414 |
| G42A A47C U77G G92U | ≤ -4.2 |
| U44A A52C | -3.94 |

| Variant | polymerase ribozyme fitness (log ratio) |
| --- | --- |
| G46A G50A | -0.957 |
| C43U A47C U56A U78G C87G | ≤ -4.2 |
| G42A C75G C96G | ≤ -4.2 |
| U44A G58C G92C G141U C149A | ≤ -4.2 |
| A41U A47U C93G | -4.14 |
| U45A G50A U135G | ≤ -4.2 |
| A41U G136A | 0.0389 |
| G42C U55A G92C A115U A150U | ≤ -4.2 |
| U44A U45A A49C C57U G70A G84U A91U C123G | ≤ -4.2 |
| G42C U55A A60U C87U A115U | ≤ -4.2 |
| G42A A52G G70C G141C | ≤ -4.2 |
| A41G U104G C105U A122C | -1.26 |
| U44A C54A C75G G92U U145C | ≤ -4.2 |
| G42U G50A C118U A122C | ≤ -4.2 |
| C43G U55C G70A C85A C87G C95U G133U | ≤ -4.2 |
| U44A G50C G84U G88A U139C G152A | ≤ -4.2 |
| A41G A89G G92U G100A G117C G133A G143U | ≤ -4.2 |
| A41U G86U C125U U127G | -4.16 |
| A41C G50A G86A A98G | -3.62 |
| A41C G46A C57U C95U A115G | -3.25 |
| A41C G48C U56A A89C C103U | -2.34 |
| C43A C87A A89G C93U | ≤ -4.2 |
| U44C G88A U135A U139G | ≤ -4.2 |
| A41G C63U | 0.774 |

| Variant | polymerase ribozyme fitness (log ratio) |
| --- | --- |
| U45G G50A A73C C93U C96U C99A C108A G112C G124U U127G A142G C149G | ≤ -4.2 |
| U45A U77G G84U C118U | ≤ -4.2 |
| G42A G100U | ≤ -4.2 |
| G42U G59U G92U G126A U135A U144A | ≤ -4.2 |
| A41G C96A C149U | -0.509 |
| C43A C87U G136C | ≤ -4.2 |
| G42C C116G A120U A138G G141U G143A | ≤ -4.2 |
| U44A C85G U90C U104G | ≤ -4.2 |
| C43A A115U C118G | ≤ -4.2 |
| G42A C96A A122G A138G U145G | ≤ -4.2 |
| U44A C51U C76U A106U A110G | ≤ -4.2 |
| C43U G46A U90C C95U A106U | ≤ -4.2 |
| U45G G50A C54U A120C G126C | ≤ -4.2 |
| G46C U101G A107U A137C | -4.12 |
| A41C G92U | -1.08 |
| C43U G74C C93G U146A | ≤ -4.2 |
| U44A G84A C85G C95G C99U | -3.94 |
| A41U A49C C96G A113G U135C C149U | ≤ -4.2 |
| G46A A97U U109G A121G U135C | ≤ -4.2 |
| G46C C57U U61G C75G A119U G141A | ≤ -4.2 |
| A41G G50C C93G C103U C123A U127C | ≤ -4.2 |
| A41U A66C G67A C79G C96U A150U | ≤ -4.2 |
| U45A A47U U77G C114G A122U | ≤ -4.2 |
| C43U U61A G80A G94U A106C A122U | ≤ -4.2 |

| Variant | polymerase ribozyme fitness (log ratio) |
| --- | --- |
| G42A C51U A64C G80A U127A | ≤ -4.2 |
| G42C C51U C103G | ≤ -4.2 |
| U44A G50A U77A U78A C93G A115C G133A G141A | -4.14 |
| G42U A52C C93U | ≤ -4.2 |
| G42C U53A C99U | ≤ -4.2 |
| G42A C114G G133U A150C | ≤ -4.2 |
| G42C U148C | ≤ -4.2 |
| U44A U55A C75A G84A C105U | ≤ -4.2 |
| A41U C51A G86C G88C | ≤ -4.2 |
| G42A G83U A97U | ≤ -4.2 |
| C43G G88A C95U C105A | ≤ -4.2 |
| U45G C87U U111G A147C | ≤ -4.2 |
| U44G G50A C57G C72G C114A G140C | ≤ -4.2 |
| G42C U53A C79U C85G A89U C125U | ≤ -4.2 |
| G46C G74C C87A | ≤ -4.2 |
| C43U U78A C85A A115C | ≤ -4.2 |
| C43U G86U C125A | ≤ -4.2 |
| U44A C95U C96G A120C | ≤ -4.2 |
| C43A G83C U90G G140U | ≤ -4.2 |
| U44C A89U C103A A120U | ≤ -4.2 |
| A41G C87A A121G C123U G140A U146C C149G | ≤ -4.2 |
| A41U A60U U144G | -0.464 |
| G42A G58C C79A C118U A142U | ≤ -4.2 |
